Experimental data: paper PMC2914828

Biological target: alternative complex III (ACIII) subunit s5 (Chloroflexus aurantiacus strain J-10-fl (endogenous))
Assay: cross-linking

Substance: alternative complex III (ACIII) subunit s5 (natural protein)
- stoichiometry N: 2
